Measured values as given in the DeepSol protein solubility set.

Assay: soluble on expression in E. coli; label from the status in PepcDB or PDB records

Soluble on expression in E. coli, not soluble:
MGSDKIHHHHHHMLMTPDEDRITQLYEAFNRRAFDRCIAMLAPDVSWPDELEDRRLEGLDAVRAYLDHAIAPLRVCYQPIALFTPSPGQIEVLARQTVLSATDGSLWSSLRVRHRYTIKDGLFTHLESEQNYTAPTFEGVDRLLRRLYDAINAGDVDGAAACFGDHACFEDKLEDGPISGPAAIRAHFEHLFATLQVTATMCDYALEPDDRVRVRLQVEARGATGRLWHDGGVTAWYRLEGGLIVGQDVDDSGEEAP
MGSDKIHHHHHHMLNDANLQAADMPDTEFTLTRNGFGRLVLTLGDGTAHEGVVPVRAFPIGAPDDGIGMMSTDGHELAWIPRLDRLPAPQRAMVEEELAAREFMPEIQRIVGVSTFATPSEWTVQTDRGQTTLVLRGEEDIRRLAGTTLLISDSHGIHYLIRDLMALDRASRKILDRFL
MGSDKIHHHHHHMLNQQWLTTFIKLVELGHFTHTAEQLFMTQSGVSQQIKKLEQQAGAPLLNRIGKGFELTQAGMALLAHAQALVQQQAELLASFHQDNAYSGECKLACSGSLAMLIYPKLIDRQLQYPELKMSLEAAPNQRIIDRVLDNSIDVGIITQEFAHPELSLRLLGSQRLCLVLPNVWEGRLPRLIEYNFLTELGMIDHPDGMHYWQHFVECHFPQHLPQASKIKRLSYVNQLSQILLPVAKGLGFAVLPEFAIKQVSARDGVLEGLFRVPDASLSAHVASESLYLIQKRHRPLALRYQEIITLIKGLIS
MGSDKIHHHHHHMLNTIGERQKQLLKLLRGSRPGLSVDELSKGLEITRNAVRQHLSSLEGAGLVTAGNTRPSGGGRPQQLYVLTELGKESFPRQYSWLAQLVLASVRREEGVENMGKRLSEIGAGIAEQIRGQYPDLNTKEEKIDKLTEVMDQLGYNAKSATLPNGEKVIEADNCVFHQMAAKDMEICHLDRGLMETFTDSKVEQHECMARGGELCRFRFVSKKE
MGSDKIHHHHHHMLRFVMNDDQQSCLVSRLSRFVALTEAECAFIAEMEKDEHERRKGRPVVQVGDPTEGIMVLKSGWAVVKADSSDGRSQILRVYLPGEVMGLAEIGSSHANHRIIMQTDGKICPFPRAGLAPLYSDYPRLGALLTAVGSLDQIALRHHASSLGAMDATGRLKFWLLQLRSRLEVANVGLGNRFRVPFSQVEIGQAVGLTSIYVNKLLRRFMDDGDLEIERPYFRLLNREQWERDCEYVNPFVDMDTSWFPPAYPEIHDSAP
MGSDKIHHHHHHMLSDKQKKHILVNRDGLKYYTVEGLEKVHEEMLRLLLIIDTIAKENNIPYWIDGGSLIGIVRHKGFIPWDDDLDISLLKKDYLRLIKEISMYCEMHNDVALFYNEPLVEHTCNFFASKKVFSRTQGSCVLVPVKIDIRPVNCIVKNKDNVIENNIYRDTANYIIFGKSYGYMKKTLSHKNEQMDFLEYYNYKYGLVDSGLENVIMVHPYFEFSNTFELTYNDLFPLKMLQFENMLLPVPNNYDYLLKELYGDYMSYPNICHRAPVACQIYQRQLKDNRFNLCLSMFKHTNRGLLYRMRIILVQIRLLGVFEYMKIKIYE
MGSDKIHHHHHHMLTASVNEAEPCAEPQRPVIRLHPVTADDAPKLPATRCSTCAIRNVCMPAGLTPIEFARLDAMVCTTRHVKRGDALFRTHDTFQSIYAVRTGSFKTVVMHRDGREQVTGFQIVGETLGLDGVCGGRHNSDAIALEDSTVCIIPFAQLEAVCREVKPMQHHVHQLMSGEIVRESSLMMLLGTMTAEQRVAAFLLNISERFQKRGYSASEFNLRMTREEIGCYLGMKLETVSRMLSKFQRDRLIAPRGKQIRITDPQGLARV
MGSDKIHHHHHHMLVRQEALSSKMSIKDLPSSSPLPNANLVLVFGSVRRFSDGKLPTQLKERYPAAQIVGCTTSGEIGPHGVSDDSLQITAIAWDNTMQRVTYARANNMQTSAETAINLAKQLKSDSLRTILVFSDGLHINGSELLQGFQSVLGDIPIVGGMAGDNAEFSRTLQLLNDSIEEGLVVAIGLYGDKLITASGALGGWKPYGPPRKITRSEKNVVYEMDGKPALPLYRMYIGEQNAKALPGSGLRFPFAVIEEGKREVEKVRTLLAIDPEENSLTFAGNVEEGETVRLCQTTHDRLVEGAGGAARLVTANLDTSQPGLALCVSCVGRKLVMAEQIADEIQAVQQTLGSQTALTGFYSYGEFCPRPNTTDNVLHNQTMTIGYLSEAL
MGSDKIHHHHHHMLVYPSGIDLSTSTLRYLSDLLRARRRERGTRWRRLTTDRQALLALAHLRCGHTYAQLAAGFGIGLATVYRYIVEAVEVLAALAPTLQQAMTFAANKAFVILDGTLLHIDRIAADRPYYSGKHKRHGMNVQVIADAFGRLLWASPALPGAVHDIKAARIHGIIEALTQAGIRTWADKGYQGAQGTIRVPYRGRWSTLPAGKRAVNSSHAKIRAVGEQANATLKSWRLLRKLRCSTTRITDIVKAVLALHLATAA
MGSDKIHHHHHHMLYQLHEMQRAFLRPLAAFTDASSQLFTHPYSPLAYMPMSRQLAAGCELVHRIGKEYQKPAWNLPATEIQGKRVAVIEAVVLDKPFCRLVHFQRDVRRTAGRADPRVLLVAPLSGHHATLLRDTVRALLPAHDVYVTDWVDARMVPQDAGPFHLDDYVRYIQAFLRHLGPDTHVISVCQPTVPVLAAISLMASANDPCQPRSMVMMGGPIDPRESPTQVNRLATTKPYAWFESQLIHAVPAPYPGAGRRVYPGFLQHAGFMAMNPDRHLKSHYDFYLDLLRGDDGDAEAHRRFYDEYNAVLDMPAEFYLDTIRTVFQEWLPGGTWEIDGQLVRPADIRKTSLLTVEGELDDISGQGQTRAAIKLCSGIPAARKSHYTAVGCGHYGIFSGRRWRELICPKIAAFIRQS
MGSDKIHHHHHHMMADERIEVLKDILLELHHGASAESVQERFNQHFKGVSAIEISMMEHELMNADTGITFEDVMGLCNVHANLFKGAIADVDVPDAEQEGHPVKVFKDENLALRAAIMRIRRIIENYTKPENEDFRQEILKGLKHQFDLLGQFYHHYTRKEKLFFPIMERYGHDSPPKVMWGVDDDIRDLFKDAKATLAKLPDGSIEELSQKFEAFAKEFEEMIFKEEAILLMILLESFTQDDWLQIASESDAYGYAILKPTEKWIPHRESFDNEADADTSDNQLADALNQVQDANSPEGTNTKVINTPEGQFTITFKPKEKEAAADRTTQQPFGNGYLSVEQANLILNHLPLEITFVNKDDIFQYYNDSVPAAEMVFKRTPSQVGRNVELCHPPKVLDKVKKVFELLRNGQRDKVNMWFQSERLGKFVYVTYAAVRDQAGDFQGVLEYVQDIKPFFELDSEFNRDI
MGSDKIHHHHHHMMAFITVKPEIKNNLANVAKELKIDEELLKSANRSAQKHQLYCPGYVIEEHSGKELQTIQDIKRFLQPRQLKLSDSWIEQEKIYDDSAVEKEIKKIIDVFPFVSCREIGRSVLGRPIWELKAGGEHAVKKVHMNASFHANEWITTSVLLKWFKEYCMSLCCNSPFFGFSPIKLFNSTSLSLVPLVNPDGVDLVLNGSEVMGARRDELERLNEHRPNFNEWKANINGVDLNKQFPSLWEIEKYRKPTAPSYRDFPGISPLTEPESIAMYRLITENPPDRLLALHTQGEEIYWGYKGLEPEESAAVIKEFEELSGNIYKGVRDIDSYAGFRDWFIHHYFKEGYTVELGKGQNPLPFQQFSHIYNATSGILWRALFFHE
MGSDKIHHHHHHMMAKLVVCIIDGMADPPPPAGGVTPLAAAHTPHCDTLARHSVAGLCHVIQPEAVPGSEAGLSALLCCEAAASIARGPVEALAQGDPVAPHETVWRLNLVSLGPRGNYYNPAPLLDAATETAARKMLDRALGTQGYSLLGGKGFRHLCAGTEPPVLRDGPQDVCGMTPDTGQADLNSYCPRLARAMTEANVLFRRSRMDLAVWPWGAGTMPDLPGFAETTGQTGALAGGVPLARGLALALGMTAPSIAGATGGIDTDLGAKTRAAIALAAGHDVVYLHVEAPDLHAHALDRVAKRRAIERIDAEVVGPLHMALPDATLLITCDHATDCATGRHMAIPVPFILHKPDGPQDGIATFSEAASARTGIRIDSAATLVRLALAD
MGSDKIHHHHHHMMDARRNGLVLLALLLLTQTTISAQTDSMGKDVPIDSVSVATSDSLQTKRGFFKKFLDYFNDANKEKKNKKFDFSVIGGPHYSSDTKFGLGLVAAGLYRTDRNDSILPPSNVSLYGDVSTVGFYLLGVRGNHLFPQEKYRLNYNLYFYSFPSLYWGRGYDNGANSDNESDYKRFQAQVKVDFMFRVAKSFYIGPMAVFDYIDGRDFEKPELWEGMSARTTNTSLGLSLLYDSRDFLTNAYQGYYLRIDQRFSPAFLGNKYAFSSTELTTSYYHPVWKGGVLAGQFHTLLNYGNPPWGLMATLGSSYSMRGYYEGRYRDKCAMDAQIELRQHIWKRNGVAVWAGAGTVFPRFSDFTPKHILPNYGFGYRWEFKKRVNVRLDLGFGKHQTGFIFNINEAF
MGSDKIHHHHHHMMGEFEAIRPYSDAEVPAVLQRLLSDDAFLGALVRYRFPRLAGPLGWLLKPLIAHRLAREVTGIRSVATLQDKFEPYVDHTIEKATDGVTYSGVNRLKPGCAYLFIANHRDIVMDPAFVNYAVYHAGLPTPRIAIGDNLLQKSFVSDLMRLNKSFIVHRSLSGRREKLAAYQTLSAYINHSIREDRQSVWIAQAEGRAKDGDDRTDSAILKMFHMSRKDEPFAEMVRALHFIPVSISYEYDPCDLAKARELHTRASTGEYRKAPGEDDASIALGITGYKGRVHINFGAELEGEFSDAKQLAAELDRQILGNYRLFPVHYLAYEMSENRDPGLAVPTAESLFGSEELEKARKEWNRRLEQCPAEQRSWLVLQYANPVLNQYRIKQQS
MGSDKIHHHHHHMMGYNLTTPFLIYQWNFPMFPWDQIDTVLLDMDGTLLDLHFDNHFWLSLVPGTLSRMHGISAEAATSHVRAAYDKVAGTLEWYCLDYWERELGLDIMALHRTLVDRIQLRQDSMPFLTALADAGKRRILLTNAHPNSLALKLEHTELASGLDEMLSSHQTGHPKESPLFWQAVFARFELNPRRCLFIDDSEAILLAAKHAGVGFQLGISNPDSQQPNKVFHDFPAIHDYRLLLNE
MGSDKIHHHHHHMMKMQVVIASGKGGVGKSSITASLLYLLKDEYKLIAVDADAEAPNLGLLLGVTEWEIEREHIGAKIARINPESCIRCGLCQMRCPYECIYVDEEGNYVVNELTCEGCNVCGLVCPVPGTITLEEVRSGIIRKATTKYGFPIISAQLDVGKPESGKLVTEEKEWASKIMKEEGLEHMIVDSAAGIGCQVIASVGGADVAILIAEPTPASLSDVQRVYKVVQHFREPAYLIINKADINPGFTKLREWAESEGIPILGEVPYDSSIPRSMSMLKPFVEAFPDSKASEAIRGIAERIKEEILKG
MGSDKIHHHHHHMMNTLAHPPGTDDATLSGMLSHFRLLEPVFDAMPDVVFFVKDAEARYALVNRTLASRCGFKEKTALLGRTAEDVFPRRFGRIYTAQDKAIINVGNQLIDQLELHLYPGRQPGWCLTCKQPLRNAAGKVVGLAGISRDLKADESSHPAYSRLATVVQSIQENYVQPLNLKQLAAMADMSVAQLERYFHKVFHLTPRQVLLKARLDAATALLVSHDKVTDVAALCGYTDHSAFTRQFKATVGVTPTEYRMLLHGTSRS
MGSDKIHHHHHHMMTYRDAWFELALLTNGRSFPRHTHDEFVISANLSGMETVWLDGETFVATNDMVTTYNPNQLQGSDNAFDRWQCASLYVHPQAFEHYFHQTFLFSQGWNPSAQLASELKQLVTSDLDDSARQERIILLLAGLMEGQHRMLPQSQVKEAERITRIKEGLLNDLSEVPTLDQLAQQESLSVAHLVRSFNQAVGLPPLAWLMQRRMCKARELLRQGTAISQVAGDVGFADQAHFTKAFNRYNAMTPGQFRRINF
